Series [1] has as its system T1, Affinity-purified GST-tagged wild type (WT) hXBP1s.
T1 sequence: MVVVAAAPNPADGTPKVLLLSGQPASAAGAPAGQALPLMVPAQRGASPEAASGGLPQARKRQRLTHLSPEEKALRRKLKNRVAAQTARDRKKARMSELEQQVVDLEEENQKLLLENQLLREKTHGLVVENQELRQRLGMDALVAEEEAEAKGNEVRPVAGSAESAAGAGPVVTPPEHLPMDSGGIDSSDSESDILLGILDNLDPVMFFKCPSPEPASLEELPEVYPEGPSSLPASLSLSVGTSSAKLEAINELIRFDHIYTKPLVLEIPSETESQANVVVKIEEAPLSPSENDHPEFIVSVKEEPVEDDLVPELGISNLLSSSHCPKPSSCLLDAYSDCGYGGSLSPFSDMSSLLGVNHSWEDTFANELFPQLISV

In series [2] the test system is T2, Affinity-purified GST-tagged hXBP1s S288A mutant.
T2 sequence: T1 sequence with S288A

Residue numbers refer to the chain shown, from its start.

“Active recombinant human JNK2α2 (Millipore)”: the “in vitro kinase assay, phosphorylation in the presence of ^32P (autoradiography)” value in series [1] is recorded as “JNK1, JNK2 or JNK3 was sufficient to directly phosphorylate hXBP1s”; in series [2] it was “mutation of Ser288 to A abolished JNKs-mediated phosphorylation of hXBP1s”.

The values above are taken from US11137400.
